Assay results as given in patent US20220409745, “COMPOSITIONS AND METHODS OF USING ENGINEERED FUSION PROTEINS THAT BIND G4C2 HUMAN REPEATS” (The Regents of the University of California, published 2022).

Columns and labels:
[1] = molecular target: T1, ZFP106 Znf1 (Z1) (Homo sapiens, UniProt Q9H2Y7 SEQ:1-25); assay: EMSA; binds G-q structure; details: G4
[2] = molecular target: T1, ZFP106 Znf1 (Z1); assay: EMSA; binds non-G-q structure; details: non-G4

T1 sequence (Q9H2Y7 20-44): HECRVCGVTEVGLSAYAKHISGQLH

B1: (G4C2)8 RNA G-quadruplex (ssRNA)
RNA: GGGGCCGGGGCCGGGGCCGGGGCCGGGGCCGGGGCCGGGGCCGGGGCC
Question: Does B1 bind [1]?
Answer: binds

B2: (G4C2)8 RNA non-G-quadruplex (ssRNA)
RNA: B1 RNA
Question: Does B2 bind [2]?
Answer: binds
